Reference: the supplement of paper PMC10126150
± gives the standard deviation of the averaged measurements.

System: ATP
Assay: switch fluorescence ratio, 500 uM ATP over buffer (Cy3 cluster intensity, sum of 5 cycles each) (fold (ratio)); higher = stronger signal-on switching upon ATP binding; sequences stand for … in TCGTCGGCAGCGTCAGATGTGTATAAGAGACAGTTTTTTTTTTTTTTTTTTTTTTTTT…TC
Conditions: aptamer strand: ATP DNA aptamer (quencher-CACCTGGGGGAGTATTGCGGAGGAAGG + anchor), 100 nM annealed; ATP concentration: 500 uM
Procedure, shortened: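 Exposure to 500 uM ATP lasted 15 min at 22 °C before imaging, and a selection-buffer image was taken beforehand, for Cy3-labelled switching-strand clusters on a modified Illumina MiSeq flow-cell annealed to 100 nM quencher-labelled ATP aptamer. Five buffer/ATP cycles were run with NaOH stripping and re-annealing between them. The fluorescence ratio per cluster is summed target-cycle over summed buffer-cycle Cy3 intensity, averaged per switch-domain sequence. Clusters outside 100-1000 RFU were excluded.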

Sequence | switch fluorescence ratio
GGGTCATTCA | 0.9922 ± 0.0049
GGGTCCGCTG | 1.06 ± 0.07
GGGTCCGGTC | 1.0075 ± 7.9e-05
GGGTCCTGGG | 0.973 ± 0.012
GGGTCGATGT | 1.02 ± 0.056
GGGTCGCAGA | 1.04 ± 0.058
GGGTCGCCAT | 1 ± 0.028
GGGTCGGGTT | 0.972 ± 0.037
GGGTCGGTTT | 1.01 ± 0.019
GGGTCGTCAT | 1.01 ± 0.015
GGGTCTAGGT | 0.997 ± 0.03
GGGTCTCATC | 1.02 ± 0.065
GGGTCTTAAT | 0.981 ± 0.031
GGGTCTTATG | 1.03 ± 0.078
GGGTCTTGTA | 0.99 ± 0.016
GGGTCTTTGT | 0.981 ± 0.026
GGGTGAAGGT | 0.9866 ± 0.0047
GGGTGAAGTT | 0.984 ± 0.036
GGGTGAATGT | 0.993 ± 0.041
GGGTGACAAC | 1.002 ± 0.0084
GGGTGACCAA | 0.969 ± 0.013
GGGTGACGGT | 1.01 ± 0.04
GGGTGAGATA | 1.07 ± 0.011

Sequence | switch fluorescence ratio
GGGTGAGTG | 0.996 ± 0.016
GGGTGATCGA | 0.98 ± 0.054
GGGTGATGAA | 1 ± 0.045
GGGTGATGGA | 0.991 ± 0.026
GGGTGATGTG | 0.955 ± 0.022
GGGTGCATGT | 0.99 ± 0.02
GGGTGCTGGG | 0.999 ± 0.042
GGGTGGAAAA | 0.997 ± 0.048
GGGTGGACAG | 0.975 ± 0.017
GGGTGGACGG | 0.993 ± 0.06
GGGTGGAGCT | 1 ± 0.019
GGGTGGAGGA | 1.008 ± 0.0038
GGGTGGCACA | 1 ± 0.0046
GGGTGGCAGC | 0.993 ± 0.031
GGGTGGCGAC | 0.988 ± 0.014
GGGTGGCTGG | 0.961 ± 0.049
GGGTGGGAGG | 0.991 ± 0.034
GGGTGGGGCG | 1.04 ± 0.043
GGGTGGGGGG | 1.01 ± 0.037
GGGTGGTTTG | 1.006 ± 0.0097
GGGTGTAACT | 0.9812 ± 0.0074
GGGTGTACTT | 0.991 ± 0.023
GGGTGTATTT | 1.02 ± 0.011

Sequence | switch fluorescence ratio
GGGTGTCGGT | 0.984 ± 0.024
GGGTGTGAGT | 1.03 ± 0.018
GGGTGTGCTT | 1.04 ± 0.029
GGGTGTGTGC | 1.03 ± 0.08
GGGTGTTACA | 1.05 ± 0.022
GGGTGTTAGA | 1 ± 0.014
GGGTTAAATT | 1.01 ± 0.038
GGGTTAACTT | 0.999 ± 0.046
GGGTTAATTT | 1 ± 0.028
GGGTTAGCGG | 1.01 ± 0.027
GGGTTAGCTG | 1.01 ± 0.081
GGGTTAGGAG | 0.99 ± 0.029
GGGTTATTAG | 0.986 ± 0.018
GGGTTATTGA | 0.995 ± 0.01
GGGTTATTTG | 1.01 ± 0.045
GGGTTCAGGG | 0.977 ± 0.02
GGGTTCATGT | 1.006 ± 0.0027
GGGTTCATTC | 0.998 ± 0.026
GGGTTCCATT | 1.023 ± 0.0075
GGGTTCGTGG | 0.997 ± 0.031
GGGTTCTCAG | 0.995 ± 0.024
GGGTTCTGGA | 1.01 ± 0.019
GGGTTGATCT | 0.993 ± 0.011

Sequence | switch fluorescence ratio
GGGTTGGGGC | 0.999 ± 0.049
GGGTTGGTTA | 1 ± 0.04
GGGTTGTCAA | 0.975 ± 0.0099
GGGTTGTTAC | 1.14 ± 0.069
GGGTTGTTAG | 0.996 ± 0.027
GGGTTGTTGG | 0.9963 ± 0.0015
GGGTTGTTTC | 0.973 ± 0.027
GGGTTTACGA | 1.01 ± 0.074
GGGTTTACTG | 1 ± 0.022
GGGTTTAGTG | 0.962 ± 0.014
GGGTTTCGTT | 0.99 ± 0.05
GGGTTTGGGT | 1.01 ± 0.053
GGGTTTTACA | 0.9813 ± 0.0029
GGGTTTTAGC | 1.03 ± 0.076
GGGTTTTCCG | 1.02 ± 0.035
GGGTTTTTCT | 0.99 ± 0.036
GGTAAAAAGG | 0.971 ± 0.022
GGTAAAGGAT | 0.991 ± 0.039
GGTAACAGGG | 1.02 ± 0.032
GGTAACGAGG | 0.963 ± 0.039
GGTAACGTTT | 0.985 ± 0.027
GGTAAGATCG | 0.9785 ± 0.0077
GGTAAGGGCC | 1.01 ± 0.034

Sequence | switch fluorescence ratio
GGTAATAGGG | 0.996 ± 0.036
GGTAATTAAA | 0.974 ± 0.011
GGTACAGGGA | 1.02 ± 0.015
GGTACGAAAC | 1.68 ± 0.75
GGTACGAACG | 1.29 ± 0.045
GGTACGAGGT | 0.972 ± 0.019
GGTACGTGCA | 0.99 ± 0.024
GGTACGTTGG | 1.02 ± 0.0078
GGTACTAGGC | 1.04 ± 0.08
GGTACTGAGC | 1.03 ± 0.061
GGTACTTGGA | 1.04 ± 0.032
GGTACTTGTT | 1.05 ± 0.052
GGTAGAGCTG | 1 ± 0.018
GGTAGATGCG | 1.03 ± 0.04
GGTAGCAAGT | 1.05 ± 0.034
GGTAGCGAAA | 1.009 ± 0.0051
GGTAGGAAAC | 0.994 ± 0.045
GGTAGGGCGT | 1.01 ± 0.027
GGTAGGGGTT | 1 ± 0.053
GGTAGGTGGC | 0.952 ± 0.027
GGTAGGTGGG | 1.01 ± 0.055
GGTAGTACTG | 0.995 ± 0.095
GGTAGTTCCT | 1.02 ± 0.013

Sequence | switch fluorescence ratio
GGTAGTTGCC | 1.02 ± 0.034
GGTAGTTGTG | 0.982 ± 0.013
GGTATAGAGA | 0.986 ± 0.051
GGTATCAGGG | 0.999 ± 0.022
GGTATCCGGG | 0.974 ± 0.019
GGTATCTAGA | 1.02 ± 0.0067
GGTATCTTAG | 0.9857 ± 0.0087
GGTATGGTAC | 1.086 ± 0.0055
GGTATGTTAA | 0.98 ± 0.014
GGTATGTTTG | 0.96 ± 0.043
GGTATGTTTT | 0.978 ± 0.037
GGTATTCAGC | 0.957 ± 0.052
GGTATTGCGG | 1.05 ± 0.023
GGTATTGGAC | 0.9947 ± 0.0058
GGTATTGTAG | 0.982 ± 0.025
GGTATTGTGT | 1.02 ± 0.028
GGTATTTTTG | 0.992 ± 0.019
GGTCAGGCGA | 0.989 ± 0.016
GGTCAGTGTC | 0.981 ± 0.052
GGTCATGGGG | 0.978 ± 0.023
GGTCCAAGAT | 0.9998 ± 0.0066
GGTCCAGTGT | 1.06 ± 0.016
GGTCCTGTTT | 0.994 ± 0.02

Sequence | switch fluorescence ratio
GGTCGAGGGG | 0.997 ± 0.021
GGTCGATGAT | 0.98739 ± 0.00068
GGTCGCCTCA | 0.9687 ± 0.0086
GGTCGGGC | 0.969 ± 0.03
GGTCGGGGCG | 1.02 ± 0.071
GGTCGGGTTC | 0.985 ± 0.015
GGTCGGGTTG | 0.979 ± 0.011
GGTCGTAGGG | 1.01 ± 0.016
GGTCTAACAT | 0.998 ± 0.015
GGTCTACTTG | 0.984 ± 0.057
GGTCTAGAGA | 0.98 ± 0.033
GGTCTATCCG | 0.983 ± 0.046
GGTCTCAAGA | 0.993 ± 0.023
GGTCTCTTAC | 1.02 ± 0.037
GGTCTGGGGA | 1.024 ± 0.0073
GGTCTTGGCA | 0.985 ± 0.052
GGTCTTTTGT | 0.998 ± 0.042
GGTGAACTTT | 0.964 ± 0.015
GGTGAAGGCA | 1 ± 0.023
